Experimental data reported in patent US8598081B2, “Specific delivery of agrochemicals” (priority 2010, dated 2013).

Tests used:
potato leaf discs = assay: VHH binding at different pH, leaf dip experiment; set-up: species or system potato (variety Desiree); details: whole range tested from pH 2 to pH 11; 5 μg/ml; 1 hour
Experimental: In order to test applicability of VHH as binders for greenhouse or field applications where binding supposedly may occur at pH-values, deviating strongly from physiological conditions in which antibodies naturally bind their targets, a leaf dip VHH binding experiment was carried out in a series of solutions with different pH. The following solutions were prepared: 50 mM glycine pH 2.0, 50 mM sodium acetate pH 4.0, 50 mm sodium carbonate pH 9.6, and 10 mM sodium hydroxide pH […] 8 mm potato leaf discs (variety Desiree) were cut using a puncher tool. The leaf discs were first equilibrated to the different pH by washing three times with solutions at different pH. Hexahistidine-tagged VHH were diluted to 5 μg/ml in solutions with different pH, added to the corresponding equilibrated leaf discs, and binding of VHH was allowed for 1 hour. After incubation with VHH, leaf discs were washed three times with solutions at the corresponding different pH. After that, all were washed two times with PBS to equilibrate leaf discs to PBS. Bound VHH were detected by incubation with monoclonal mouse anti-histidine antibodies directly conjugated with Alexa-488 fluorescent dye (Abd Serotec) in PBS for 1 hour. Unbound anti-histidine antibodies were removed by washing five times with PBS. Leaf discs were analyzed for bound VHH with microscopy.

potato lectin = target: T1, potato lectin (Solanum tuberosum, UniProt Q9S8M0); assay: ELISA-like assay, microcapsules with monovalent or bivalent VHH, potato lectin; format: binding; set-up: Surface area of bound microcapsules: unit not given here; details: for Surface area of bound microcapsules: Uvitex microcapsules
T1 construct: purchased Sigma
T1 sequence (Q9S8M0 whole entry, looked up): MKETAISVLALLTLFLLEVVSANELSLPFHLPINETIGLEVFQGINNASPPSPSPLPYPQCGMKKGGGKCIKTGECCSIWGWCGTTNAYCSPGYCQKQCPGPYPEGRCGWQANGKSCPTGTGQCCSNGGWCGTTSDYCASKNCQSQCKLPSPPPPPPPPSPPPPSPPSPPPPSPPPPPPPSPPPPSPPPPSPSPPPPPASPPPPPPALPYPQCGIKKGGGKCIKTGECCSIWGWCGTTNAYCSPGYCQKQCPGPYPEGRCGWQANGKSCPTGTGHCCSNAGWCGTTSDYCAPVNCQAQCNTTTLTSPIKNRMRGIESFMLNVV
Source text: Bivalent VHH constructs were produced in bacteria by cloning two VHH sequences in tandem into the pASF22 vector, creating a fusion of two VHH with a 9 glycine-serine linker (GGGGSGGGS (SEQ ID NO:50)) in between the two VHH. pASF22 is an in-house produced pMES derivative. The tags that were used were C-terminal c-Myc (EQKLISEEDLN (SEQ ID NO:51)) and hexahistidine (HHHHHH (SEQ ID NO:52)). A triple alanine linker (AAA) was placed in between the C-terminal end of the VHH and the c-Myc tag and a glycine-alanine-alanine (GAA) linker was used in between the C-terminal end of the c-Myc tag and the hexahistidine tag. The complete sequence C-terminal of the bivalent VHH that was used: AAA-EQKLISEEDLN-GAA-HHHHHH (SEQ ID NO:53). Fresh overnight cultures were produced by starting from colony streaks and inoculation of 2×TY media supplemented with 2% glucose and 100 μg/ml ampicillin. The overnight cultures were used to inoculate fresh cultures 1:100 in 2×TY media with 0.1% glucose and 100 μg/ml ampicillin. After growing at 37° C. in a shaking incubator for 3 hours, IPTG was added to a 1 mM final concentration and recombinant bivalent VHH were produced during an additional incubation for 4 hours. Cells were spun down and resuspended in 1/50th of the original culture volume of PBS and incubated with head-over-head rotation at 4° C. for 30 minutes. Spheroplasts were spun down by centrifugation at 3,000 g and 4° C. for 20 minutes. Supernatants were transferred to fresh tubes and centrifuged again at 3,000 g and 4° C. for 20 minutes. The supernatant was collected and sodium chloride concentration was adjusted to 500 mM and imidazole concentration to 20 mM. Hexahistidine-tagged bivalent VHH were purified from the extracts using HisTrap FF Crude 5 ml IMAC columns (GE Lifesciences) and HiLoad 16/60 Superdex 75 prep grade gel filtration column (GE Lifesciences) on an AKTAxpress system (GE Lifesciences) following standard procedures.
Next, it was investigated if binding of microcapsules to surfaces could be improved by using targeting agents comprising multivalent VHH. A series of parallel couplings was performed with equal amounts of monovalent VHH, bivalent VHH, and unrelated VHH. Success of coupling of VHH and multivalent VHH were analyzed as described in Example 4. An ELISA-like assay was performed using high bind half area microplates (Greiner Bio-One) coated with 5 μg/well potato lectin. Control wells included blank wells or wells coated with unrelated antigens. Plates were washed three times with PBS with 0.05%-TWEEN®-20 and blocked with 5% skimmed milk in PBS for 1 to 2 hours. VHH-coupled Uvitex-containing microcapsules were diluted to appropriate densities in 1% skimmed milk in PBS with 0.05%-TWEEN®-20. Five-fold serial dilution series were prepared and allowed to bind to the surface to compare binding of microcapsules coupled with monovalent or bivalent VHH. Microcapsules were added to the antigen-coated or control wells and allowed to bind for 1 hour. Unbound microcapsules were removed by washing five times with PBS with 0.05%-TWEEN®-20. The bottoms of ELISA plate wells were analyzed for bound microcapsules on a macrozoom microscope system (Nikon). Microcapsules were counted using Volocity image analysis software (Perkin Elmer). A DAPI filter was used to visualize Uvitex microcapsules. […] The surface area of microcapsules with coupled bivalent VHH was 15-fold above the surface area of blank microcapsules applied at this microcapsule density while the surface area of microcapsules with monovalent VHH was only six-fold above the surface area of blank microcapsules applied at this microcapsule density. This difference could be explained by an increase in binding strength due to additional avidity of the bivalent VHH compared to monovalent VHH, it could also be that the use of bivalent VHH increases flexibility and spacer length of the coupled targeting agents on microcapsules, or a combination of both.

grass leaf discs = assay: Leaf disc binding assay with VHH-coupled microcapsules, grass; set-up: species or system Lollium perenne; details: Uvitex microcapsules
Experimental: A leaf disc binding assay was used to evaluate the interaction of VHH-coupled microcapsules with potato, grass and azalea leaves. ø 8 mm leaf discs were sampled from the leaves of potato pot plants (variety Desiree), from the leaves of greenhouse-grown Lollium perenne and from the leaves of azalea pot plants. Leaf discs were washed three times with PBS. Microcapsules containing lambda cyhalothrin or Uvitex were diluted to appropriate densities in 1% skimmed milk in PBS with 0.05%-TWEEN®-20. Microcapsules were added to the leaf discs and settling of microcapsules and binding of targeting agents allowed for 1 hour. Unbound microcapsules were removed by washing three to five times with PBS with 0.05%-TWEEN®-20.
Leaf discs with Uvitex microcapsules were analyzed for bound microcapsules on a macrozoom microscope system (Nikon). Microcapsules were counted using Volocity image analysis software (Perkin Elmer). A DAPI filter was used to visualize Uvitex microcapsules. Controls for Uvitex microcapsules included blank microcapsules to which no VHH were coupled and microcapsules to which unrelated VHH were coupled.

B1: VHH 3E6: VHH binding gum arabic, potato lectin and leaf surface; SEQ ID NO:7 by order of the list (protein, listed as Lama glama)
VHH: QVQLQESGGGLVQPGGTLSLSCAASGFNVRWYGMGWFRQAPGKEREGVACISALQETTAYADSVKGRFTLSRDNPKNTLSLQMNNLQPEDTGVYYCATTDCDDSSRMTYTSYLGQGTQVTVSS
modifications: 3E6
- binding to leaf discs at different pH (potato leaf discs): detectable binding

B2: Microcapsules containing uvitex OB VHH 3E6: polyurea microcapsules containing the fluorescent tracer Uvitex OB, coupled with (monovalent) VHH 3E6 (conjugate)
VHH: B1 VHH
modifications: left off: small tags and cut ends
notes: polyurea microcapsules containing the fluorescent tracer Uvitex OB, coupled with (monovalent) VHH 3E6
- surface area of bound microcapsules above the surface area of blank microcapsules (potato lectin; application of 25-fold less microcapsules, potato lectin): six-fold
- Surface area of bound microcapsules (potato lectin; no coating (first series, with potato lectin rows), surface coverage 100%): 74.536
- Surface area of bound microcapsules (potato lectin; potato lectin, surface coverage 4%): 59.377
- Surface area of bound microcapsules (potato lectin; potato lectin, surface coverage 20%): 307.478
- Surface area of bound microcapsules (potato lectin; potato lectin, surface coverage 100%): 415.773
- more microcapsules bound to leaf surfaces compared to blank microcapsules (grass leaf discs): three-fold
- more microcapsules bound to leaf surfaces compared to microcapsules coupled with unrelated VHH (grass leaf discs): two-fold
